{"source": "paper PMC5488749", "origin": "cited, not measured here", "key": {"[1]": {"molecular_target": "neurexin1 C-terminal peptide (Homo sapiens) (UniProt Q9ULB1)", "sequence (Q9ULB1 whole entry, looked up, tested part not stated)": "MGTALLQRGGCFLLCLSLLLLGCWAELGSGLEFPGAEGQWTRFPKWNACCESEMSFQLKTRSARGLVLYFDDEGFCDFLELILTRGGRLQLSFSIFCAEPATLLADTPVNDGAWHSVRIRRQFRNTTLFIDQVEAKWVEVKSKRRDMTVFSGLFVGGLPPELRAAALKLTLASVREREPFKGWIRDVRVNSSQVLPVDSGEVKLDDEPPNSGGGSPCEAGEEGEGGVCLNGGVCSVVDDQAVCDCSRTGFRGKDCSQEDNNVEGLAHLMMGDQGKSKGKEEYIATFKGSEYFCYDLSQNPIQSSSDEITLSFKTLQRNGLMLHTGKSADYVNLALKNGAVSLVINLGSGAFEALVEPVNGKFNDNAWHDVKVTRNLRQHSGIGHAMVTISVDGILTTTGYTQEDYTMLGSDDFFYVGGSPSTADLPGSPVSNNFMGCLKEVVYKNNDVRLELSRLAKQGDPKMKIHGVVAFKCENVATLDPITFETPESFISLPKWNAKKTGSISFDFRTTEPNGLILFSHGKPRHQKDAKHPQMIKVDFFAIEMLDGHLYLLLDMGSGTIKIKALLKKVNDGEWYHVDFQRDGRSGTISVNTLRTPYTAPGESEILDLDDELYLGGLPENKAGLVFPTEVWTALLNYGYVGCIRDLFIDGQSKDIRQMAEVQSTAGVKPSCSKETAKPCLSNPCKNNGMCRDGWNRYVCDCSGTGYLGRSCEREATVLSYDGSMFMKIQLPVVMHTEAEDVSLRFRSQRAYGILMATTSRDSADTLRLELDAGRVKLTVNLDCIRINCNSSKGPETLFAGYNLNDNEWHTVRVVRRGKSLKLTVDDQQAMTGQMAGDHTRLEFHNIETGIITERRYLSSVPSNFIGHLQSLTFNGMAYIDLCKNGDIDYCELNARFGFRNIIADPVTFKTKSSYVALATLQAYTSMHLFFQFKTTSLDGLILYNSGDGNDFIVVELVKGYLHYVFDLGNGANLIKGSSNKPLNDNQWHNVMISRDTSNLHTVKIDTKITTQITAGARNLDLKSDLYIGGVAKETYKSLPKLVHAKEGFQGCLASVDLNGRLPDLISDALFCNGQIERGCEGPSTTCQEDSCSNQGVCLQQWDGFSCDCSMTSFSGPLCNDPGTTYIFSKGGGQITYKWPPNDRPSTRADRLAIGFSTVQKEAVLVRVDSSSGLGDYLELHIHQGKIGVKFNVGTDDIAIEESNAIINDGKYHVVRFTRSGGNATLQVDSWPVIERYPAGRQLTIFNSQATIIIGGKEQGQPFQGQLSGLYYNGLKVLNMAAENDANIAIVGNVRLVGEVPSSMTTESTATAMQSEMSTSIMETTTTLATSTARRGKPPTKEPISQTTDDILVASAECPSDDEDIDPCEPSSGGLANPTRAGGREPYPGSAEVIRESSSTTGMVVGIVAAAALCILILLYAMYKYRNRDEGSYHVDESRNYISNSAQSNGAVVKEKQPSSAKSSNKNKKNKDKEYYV"}, "[2]": {"molecular_target": "Caspr4 C-terminal peptide (Homo sapiens) (UniProt Q9C0A0)", "sequence (Q9C0A0 whole entry, looked up, tested part not stated)": "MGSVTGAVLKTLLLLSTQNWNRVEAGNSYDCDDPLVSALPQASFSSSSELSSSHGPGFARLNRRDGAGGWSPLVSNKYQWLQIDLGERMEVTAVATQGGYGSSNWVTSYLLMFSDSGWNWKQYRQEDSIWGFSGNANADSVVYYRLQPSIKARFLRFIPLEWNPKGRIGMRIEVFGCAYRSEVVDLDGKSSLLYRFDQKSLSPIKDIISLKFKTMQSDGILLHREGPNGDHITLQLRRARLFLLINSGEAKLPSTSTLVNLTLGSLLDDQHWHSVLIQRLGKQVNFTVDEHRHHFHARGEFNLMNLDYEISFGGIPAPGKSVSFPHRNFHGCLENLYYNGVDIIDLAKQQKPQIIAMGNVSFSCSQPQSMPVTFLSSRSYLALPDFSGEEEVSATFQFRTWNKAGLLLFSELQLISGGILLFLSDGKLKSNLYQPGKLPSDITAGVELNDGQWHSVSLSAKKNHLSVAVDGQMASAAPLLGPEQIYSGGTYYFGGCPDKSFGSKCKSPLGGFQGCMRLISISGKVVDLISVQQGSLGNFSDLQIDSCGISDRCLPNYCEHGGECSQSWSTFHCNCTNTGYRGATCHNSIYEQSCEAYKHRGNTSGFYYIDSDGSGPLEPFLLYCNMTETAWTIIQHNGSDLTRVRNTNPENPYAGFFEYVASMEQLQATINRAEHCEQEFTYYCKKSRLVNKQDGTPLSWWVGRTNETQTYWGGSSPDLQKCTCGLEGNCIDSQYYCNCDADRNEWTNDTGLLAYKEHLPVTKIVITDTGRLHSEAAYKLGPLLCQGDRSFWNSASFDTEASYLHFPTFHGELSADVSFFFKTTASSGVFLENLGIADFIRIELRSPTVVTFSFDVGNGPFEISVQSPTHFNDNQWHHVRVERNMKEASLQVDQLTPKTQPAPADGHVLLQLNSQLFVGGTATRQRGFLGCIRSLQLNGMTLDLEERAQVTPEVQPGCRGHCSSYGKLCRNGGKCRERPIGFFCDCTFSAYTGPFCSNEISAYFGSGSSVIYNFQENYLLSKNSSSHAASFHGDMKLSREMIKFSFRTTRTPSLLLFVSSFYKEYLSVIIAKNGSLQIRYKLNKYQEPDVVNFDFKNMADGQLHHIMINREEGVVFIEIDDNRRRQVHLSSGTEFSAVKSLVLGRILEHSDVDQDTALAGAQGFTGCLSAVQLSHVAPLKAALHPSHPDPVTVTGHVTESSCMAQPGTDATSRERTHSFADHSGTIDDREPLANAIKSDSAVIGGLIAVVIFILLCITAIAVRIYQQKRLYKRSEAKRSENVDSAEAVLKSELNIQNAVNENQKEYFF"}, "[3]": {"molecular_target": "neurexin1 C-terminal peptide (Homo sapiens) (UniProt Q9ULB1)", "remark": "listed apart in the source"}, "[4]": {"molecular_target": "Caspr4 C-terminal peptide (Homo sapiens) (UniProt Q9C0A0)", "remark": "listed apart in the source"}}, "note": "Like-named read-outs stand apart in the source and are kept apart here."}
{"substance": "Tiam1 PDZ (from UniProt Q13009)", "values": [{"measurement": "Kd", "setting": "[1]", "value": 2400, "unit": "µM"}, {"measurement": "Kd", "setting": "[2]", "value": 18, "unit": "µM"}]}
{"substance": "Tiam2 PDZ (from UniProt Q8IVF5)", "values": [{"measurement": "Kd", "setting": "[3]", "value": 5, "unit": "µM"}, {"measurement": "Kd", "setting": "[4]", "value": 3, "unit": "µM"}]}
